The target in experiment [1] is T1, hASCT2 receptor (human type 2 sodium-dependent neutral amino acid transporter) (human, UniProt Q15758 1-541).
T1 construct: whole, on cells
T1 sequence: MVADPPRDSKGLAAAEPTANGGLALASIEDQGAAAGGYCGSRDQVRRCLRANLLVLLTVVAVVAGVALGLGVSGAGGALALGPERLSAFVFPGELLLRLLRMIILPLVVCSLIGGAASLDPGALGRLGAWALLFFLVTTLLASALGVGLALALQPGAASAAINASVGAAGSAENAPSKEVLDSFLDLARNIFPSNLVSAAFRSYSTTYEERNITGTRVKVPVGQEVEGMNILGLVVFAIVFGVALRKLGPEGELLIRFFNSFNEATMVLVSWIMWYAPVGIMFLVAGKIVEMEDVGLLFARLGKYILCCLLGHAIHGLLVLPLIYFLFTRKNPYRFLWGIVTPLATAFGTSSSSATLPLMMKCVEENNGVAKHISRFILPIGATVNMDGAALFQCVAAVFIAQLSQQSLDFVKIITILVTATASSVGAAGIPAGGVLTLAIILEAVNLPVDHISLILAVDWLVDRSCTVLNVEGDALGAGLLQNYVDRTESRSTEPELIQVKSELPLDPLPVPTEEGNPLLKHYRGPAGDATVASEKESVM
In words: flow cytometry on XChASCT2 cells, anti-RGS-His detection.

The target of experiment [2] is T2, hASCT1 receptor (human, UniProt P43007 1-532).
T2 construct: whole, on cells
T2 sequence: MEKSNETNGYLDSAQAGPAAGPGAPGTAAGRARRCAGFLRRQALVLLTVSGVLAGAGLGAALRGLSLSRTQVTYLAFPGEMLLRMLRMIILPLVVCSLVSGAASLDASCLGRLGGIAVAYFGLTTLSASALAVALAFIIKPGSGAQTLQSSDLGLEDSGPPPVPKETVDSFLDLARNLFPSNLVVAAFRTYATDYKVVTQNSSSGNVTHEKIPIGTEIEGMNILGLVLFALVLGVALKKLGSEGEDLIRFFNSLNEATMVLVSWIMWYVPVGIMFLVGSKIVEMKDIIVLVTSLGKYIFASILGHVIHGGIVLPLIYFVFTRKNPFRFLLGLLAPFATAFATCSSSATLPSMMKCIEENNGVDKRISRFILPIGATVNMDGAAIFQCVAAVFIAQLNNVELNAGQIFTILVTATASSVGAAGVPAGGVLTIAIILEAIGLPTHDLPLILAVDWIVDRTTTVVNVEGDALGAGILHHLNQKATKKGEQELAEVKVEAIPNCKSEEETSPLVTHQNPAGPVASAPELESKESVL
In words: flow cytometry on XChASCT1 cells, anti-RGS-His detection.

The target of experiment [3] is T1, hASCT2 receptor (human type 2 …). In words: flow cytometry on XChASCT2 cells and on TE671 and TE671galv cells, anti-RGS-His detection.

B1: soluble recombinant envelope protein Env-Gp60 (Gp60, 1-435) (ligand)
chain: not shown
notes: range 21-435; Used as filtered HEK293T supernatant; the construct is printed as 1-435; also called soluble envelope
For the molecule B1, the binding result in experiment [1] is on record as “binds”.

B2: soluble recombinant SU subunit of the HERV-W envelope (EnvSU, 1-317) (ligand)
chain: APPPCRCMTSSSPYQEFLWRMQRPGNIDAPSYRSLSKGTPTFTAHTHMPRNCYHSATLCMHANTHYWTGKMINPSCPGGLGVTVCWTYFTQTGMSDGGGVQDQAREKHVKEVISQLTRVHGTSSPYKGLDLSKLHETLRTHTRLVSLFNTTLTGLHEVSAQNPTNCWICLPLNFRPYVSIPVPEQWNNFSTEINTTSVLVGPLVSNLEITHTSNLTCVKFSNTTYTTNSQCIRWVTPPTQIVCLPSGIFFVCGTSAYRCLNGSSESMCFLSFLVPPMTIYTEQDLYSYVISKPAAARRGSHHHHHH
notes: range 21-317; Used as filtered HEK293T supernatant; also called soluble SU; SU subunit (1-317)
For the molecule B2, the binding result in experiment [2] and in experiment [3] was “binds” each time.

For the origin of these results see patent publication US20160090402A1 (BIOMERIEUX, published 2016).
